The results in this text go back to paper PMC10845952.

The target of test [1] is MecA fused to the RenG N-terminal domain (1-155) (S. mutans) (UniProt Q8DW33). The test is described as follows: split reporter (BiFC, NanoBiT).
Test [2] deals with RNase J1 fused to the RenG N-terminal domain (NTD1, 1-155) (S. mutans). The test is described as follows: split reporter (BiFC, NanoBiT); RenG split luciferase complementation assay (SLCA) in live S. mutans at mid-log phase, coelenterazine-h, normalised to OD600; signal relative to unfused fragments; relative binding affinity = SLCA value divided by the value of the whole-RenG chimera of the less abundant partner.

MecA fused to the RenG N-terminal domain (1-155) (S. mutans), sequence (Q8DW33 whole entry, the tested form may be a part): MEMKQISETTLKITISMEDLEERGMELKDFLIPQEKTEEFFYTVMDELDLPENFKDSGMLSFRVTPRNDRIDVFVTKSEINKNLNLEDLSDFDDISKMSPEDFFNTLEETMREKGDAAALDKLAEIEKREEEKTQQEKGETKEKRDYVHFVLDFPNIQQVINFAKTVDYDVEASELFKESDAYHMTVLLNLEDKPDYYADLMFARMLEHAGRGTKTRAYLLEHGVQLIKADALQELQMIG

“SpaP fused to the RenG C-terminal domain (156-314) (from UniProt P23504 998-1532) (natural protein)” had a relative binding affinity (%) in test [1] of 1.72%.
With “RNase J2 fused to the RenG C-terminal domain (CTD1, 156-314) (natural protein)”, the relative binding affinity (%) in test [2] was 97.8%.
“GyrA fused to the RenG C-terminal domain (156-314) (natural protein)”: the relative binding affinity (%) in test [1] came to 12.9%.
Same read-out and setting: to “ComX fused to the RenG C-terminal domain (156-314) (natural protein)” belongs 6.3%; to “PcrA fused to the RenG C-terminal domain (156-314) (from UniProt Q8DTY6 1-733) (natural protein)”, 6.36%.
